{
  "source": "paper doi:10.1101/2022.05.31.494111",
  "key": {"[1]": {"target": "Chlamydomonas reinhardtii RabL2, wild type (Chlamydomonas reinhardtii)", "test": "ITC"}, "[2]": {"target": "Chlamydomonas reinhardtii RabL2, wild type (Chlamydomonas reinhardtii)", "test": "ITC", "remark": "listed apart in the source"}, "[3]": {"target": "minimal CrIFT81_(460-533)/CrIFT74_(460-532) complex (Chlamydomonas reinhardtii) (UniProt Q68RJ5)", "sequence (Q68RJ5 460-533, chain 1 of 2)": "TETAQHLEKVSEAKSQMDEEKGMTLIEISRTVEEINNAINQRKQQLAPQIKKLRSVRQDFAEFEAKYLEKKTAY", "sequence (Q6RCE1 460-532, chain 2 of 2, further chain)": "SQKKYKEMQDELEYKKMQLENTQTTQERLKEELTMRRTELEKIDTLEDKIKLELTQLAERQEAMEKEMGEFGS"}, "[4]": {"target": "CrIFT81_(152-C)/74_(150-C)/27/25_(1-136) complex (Chlamydomonas reinhardtii) (UniProt Q68RJ5)", "sequence (Q68RJ5 152-683, chain 1 of 4)": "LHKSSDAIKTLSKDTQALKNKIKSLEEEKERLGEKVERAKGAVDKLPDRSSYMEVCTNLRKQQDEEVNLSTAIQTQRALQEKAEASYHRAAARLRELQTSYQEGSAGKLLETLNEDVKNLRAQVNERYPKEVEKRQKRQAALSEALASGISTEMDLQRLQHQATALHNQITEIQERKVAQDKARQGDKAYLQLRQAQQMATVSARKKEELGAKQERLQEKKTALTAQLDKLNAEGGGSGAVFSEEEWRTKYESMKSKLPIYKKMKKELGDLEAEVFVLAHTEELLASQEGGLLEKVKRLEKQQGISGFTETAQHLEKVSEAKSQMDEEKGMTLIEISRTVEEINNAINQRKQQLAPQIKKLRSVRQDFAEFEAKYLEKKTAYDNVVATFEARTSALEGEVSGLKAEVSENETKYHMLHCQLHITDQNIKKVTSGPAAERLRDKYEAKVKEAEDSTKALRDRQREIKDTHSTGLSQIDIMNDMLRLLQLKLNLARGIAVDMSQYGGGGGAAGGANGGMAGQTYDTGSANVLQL", "sequence (Q6RCE1 150-641, chain 2 of 4, further chain)": "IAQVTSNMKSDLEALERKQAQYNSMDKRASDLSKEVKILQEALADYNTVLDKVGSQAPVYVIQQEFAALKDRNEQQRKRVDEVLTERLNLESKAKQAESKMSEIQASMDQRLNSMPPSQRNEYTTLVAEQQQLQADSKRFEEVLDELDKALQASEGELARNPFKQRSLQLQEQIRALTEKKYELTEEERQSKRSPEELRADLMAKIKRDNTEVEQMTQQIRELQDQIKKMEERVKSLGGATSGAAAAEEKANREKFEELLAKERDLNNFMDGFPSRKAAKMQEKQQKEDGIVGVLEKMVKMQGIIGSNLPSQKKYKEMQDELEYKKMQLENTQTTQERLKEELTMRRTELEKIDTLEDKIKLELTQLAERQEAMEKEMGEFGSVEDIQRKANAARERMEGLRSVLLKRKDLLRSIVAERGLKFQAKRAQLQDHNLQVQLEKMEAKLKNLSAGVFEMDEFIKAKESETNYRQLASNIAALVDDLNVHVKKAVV", "sequence (A8HN58 whole entry, chain 3 of 4, further chain)": "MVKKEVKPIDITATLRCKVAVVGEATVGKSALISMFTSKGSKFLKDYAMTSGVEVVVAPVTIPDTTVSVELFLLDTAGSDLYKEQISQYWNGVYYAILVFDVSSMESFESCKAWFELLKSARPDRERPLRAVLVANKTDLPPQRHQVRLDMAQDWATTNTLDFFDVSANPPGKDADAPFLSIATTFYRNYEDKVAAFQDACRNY", "sequence (B8LIX8 1-136, chain 4 of 4, further chain)": "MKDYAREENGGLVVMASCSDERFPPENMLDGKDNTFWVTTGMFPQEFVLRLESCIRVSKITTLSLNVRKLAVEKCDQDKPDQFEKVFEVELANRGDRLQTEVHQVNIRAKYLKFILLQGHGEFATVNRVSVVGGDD", "test": "ITC"}},
  "note": "pKd: −log10 of the molar value. Read-outs that look alike come from different tables or passages of the source.",
  "data": [
    {"substance": "Chlamydomonas reinhardtii CEP19 residues 1-208 (domain or fragment)", "values": [
      {"measurement": "pKd", "setting": "[1]", "result": 4.90},
      {"measurement": "pKd", "setting": "[2]", "result": 6.55}
    ]},
    {"substance": "Chlamydomonas reinhardtii RabL2, wild type (natural protein)", "values": [
      {"measurement": "GTPase rate of RabL2 with IFT81 (460-533)/74 (460-532) against RabL2 alone", "setting": "[3]", "result": 5, "unit": "fold"}
    ]},
    {"substance": "Chlamydomonas reinhardtii RabL2 Q83L (GTP-locked mutant) (natural protein)", "values": [
      {"measurement": "pKd", "setting": "[4]", "result": 6.23}
    ]}
  ]
}
